Test results taken from paper doi:10.1101/2024.05.31.596867.

Molecular target: de-glycosylated KEN SVMP PIII (PNGase F treated under native conditions) (Bitis arietans (puff adder, Kenya))
Assay: gelatin zymogram

- stoichiometry N: 2
Substance: de-glycosylated KEN SVMP PIII (PNGase F treated under native conditions) (enzyme)
